Data on 61 substances can be found in patent US20080138349A1.

Assay [1] addresses FcγRIIIA 158F (CD16A F158), soluble monomer (human) (UniProt P08637). Briefly: Biacore SPR. In general terms: SPR reads the build-up and loss of mass on a sensor chip optically.
Assay [2] has as its target FcγRIIIA 158V (CD16A V158), soluble monomer (human) (UniProt P08637). Kind of assay: Biacore SPR.
Assay [3] has as its target FcγRIIB (CD32B), soluble dimeric Fc fusion (human) (UniProt P31994). Kind of assay: Biacore SPR.
The target in assay [4] is FcγRIIIA 158F (CD16A F158), soluble monomer (human) (UniProt P08637). Briefly: Biacore SPR; value on CD16A over value on CD32B.
Sequence of FcγRIIIA 158F (CD16A F158), soluble monomer (human) (P08637 17-208): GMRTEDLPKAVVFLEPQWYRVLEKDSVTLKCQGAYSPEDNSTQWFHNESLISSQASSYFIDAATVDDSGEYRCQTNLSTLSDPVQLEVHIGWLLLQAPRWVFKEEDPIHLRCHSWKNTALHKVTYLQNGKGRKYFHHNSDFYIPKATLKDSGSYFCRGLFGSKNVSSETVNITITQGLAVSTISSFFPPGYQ
The target of assay [5] is FcγRIIIA 158V (CD16A V158), soluble monomer (human) (UniProt P08637). Kind of assay: Biacore SPR; value on CD16A over value on CD32B.
Sequence of FcγRIIIA 158V (CD16A V158), soluble monomer (human) (P08637 17-208 F176V): as the sequence (P08637 17-208) above, with F160V counted along it
A further assay addresses FcγRIIIA (UniProt P08637). Briefly: ELISA. On the technique in general: In an ELISA, binding on a coated surface is turned into a signal by an enzyme label.

Sequence of FcγRIIIA (P08637 17-208 limits assumed): as the sequence (P08637 17-208) above
Sequence of FcγRIIB (CD32B), soluble dimeric Fc fusion (human) (P31994 43-217): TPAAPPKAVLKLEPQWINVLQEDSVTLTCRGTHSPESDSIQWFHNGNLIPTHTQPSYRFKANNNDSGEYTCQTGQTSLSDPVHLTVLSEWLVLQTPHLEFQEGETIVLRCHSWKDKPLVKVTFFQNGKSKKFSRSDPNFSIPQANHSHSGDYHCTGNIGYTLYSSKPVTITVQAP

As for “Immunoglobulin with variant Fc region D270E (antibody)”, the Koff WT/Koff mutant in assay [1] is 1.48; in assay [2], 1.25; in assay [3], 0.39. In addition, the Ratio of Affinities CD16A F158/CD32B in assay [4] was found to be 3.79. Also, the Ratio of Affinities CD16A V158/CD32B in assay [5] is 3.21.

Turning to “Immunoglobulin with variant Fc region G316D R416G D270E (antibody)”, the Koff WT/Koff mutant was 2.49 in assay [1], 2.18 in assay [2] and 0.78 in assay [3]. For the same substance, the Ratio of Affinities CD16A F158/CD32B in assay [4] was 3.19. For the same substance, in assay [5], the Ratio of Affinities CD16A V158/CD32B was determined as 2.79. On the same counts, the results for “Immunoglobulin with variant Fc region G316D R416G D270E F243L (antibody)” are 1.34, 1.5, 0.2, 6.7 and 7.5.

Turning to “Immunoglobulin with variant Fc region P247L N421K (antibody)”, the Koff WT/Koff mutant in assay [1] was 1.73; in assay [2], 1.29.

With “Immunoglobulin with variant Fc region Q419H P396L D270E (antibody)”, the Koff WT/Koff mutant in assay [2] stood at 1.64; in assay [3], 0.68.

On to “Immunoglobulin with variant Fc region R292G (antibody)”, for which the values for the Koff WT/Koff mutant in assay [2] and in assay [3] were 1.54 and 0.25, respectively. Moreover, the Ratio of Affinities CD16A V158/CD32B in assay [5] amounted to 6.2. For “Immunoglobulin with variant Fc region R292P F243L (antibody)”, the Ratio of Affinities CD16A V158/CD32B in assay [5] was found to be 39.4. Consider “Immunoglobulin with variant Fc region R292P V305I (antibody)”, for which the Ratio of Affinities CD16A V158/CD32B in assay [5] amounted to 0.6. Turning to “Immunoglobulin with variant Fc region R292P V305I F243L P396L Y300L (antibody)”, the Koff WT/Koff mutant was determined as 8.25 in assay [1], 10.1 in assay [2] and 1.38 in assay [3]. Regarding “ch4-4-20 A378V, N390I, V422I (from UniProt P01857 1-330) (antibody)”, the ELISA binding increase vs wt in the assay with FcγRIIIA was 0.5 x. For “ch4-4-20 D280E, S354F, A431D, L441I (from UniProt P01857 1-330) (antibody)”, the ELISA binding increase vs wt with FcγRIIIA amounted to 3 x. For the substance “ch4-4-20 D312E, K327N, I378S (from UniProt P01857 1-330) (antibody)”, in the assay with FcγRIIIA, the ELISA binding increase vs wt turned out to be 0.5 x. As to “ch4-4-20 D399E, M428L (from UniProt P01857 1-330) (antibody)”, in the assay with FcγRIIIA, the ELISA binding decrease vs wt is 0.5 x. “ch4-4-20 D401V (from UniProt P01857 1-330) (antibody)” came in with an ELISA binding increase vs wt with FcγRIIIA of 0.5 x. “ch4-4-20 E216D, E345K, S375I (from UniProt P01857 1-330) (antibody)” displayed an ELISA binding increase vs wt in the assay with FcγRIIIA of 0.5 x. As to “ch4-4-20 F243L, R255L, E318K (from UniProt P01857 1-330) (antibody)”, the ELISA binding increase vs wt in the assay with FcγRIIIA came out at 1 x. In turn, “ch4-4-20 F275I, K334N, V348M (from UniProt P01857 1-330) (antibody)” gave an ELISA binding increase vs wt with FcγRIIIA of 0.5 x. “ch4-4-20 F275Y (from UniProt P01857 1-330) (antibody)” displayed an ELISA binding increase vs wt with FcγRIIIA of 3 x. Same read-out and setting: the value for “ch4-4-20 G385E, P247H (from UniProt P01857 1-330) (antibody)” was 1 x. For “ch4-4-20 H224L (from UniProt P01857 1-330) (antibody)”, the ELISA binding increase vs wt in the assay with FcγRIIIA was found to be 0.5 x.

Substance “ch4-4-20 H310Y, T289A, G337E (from UniProt P01857 1-330) (antibody)” registered an ELISA binding increase vs wt with FcγRIIIA of 0.5 x. For the substance “ch4-4-20 I377N (from UniProt P01857 1-330) (antibody)”, in the assay with FcγRIIIA, the ELISA binding decrease vs wt was determined as 0.5 x. In the assay with FcγRIIIA, “ch4-4-20 K222N (from UniProt P01857 1-330) (antibody)” returned an ELISA binding increase vs wt of 1 x. “ch4-4-20 K222N, T335N, K370E, A378V, T394M (from UniProt P01857 1-330) (antibody)” displayed an ELISA binding increase vs wt in the assay with FcγRIIIA of 1 x. In the assay with FcγRIIIA, “ch4-4-20 K246R, S298N, I377F (from UniProt P01857 1-330) (antibody)” displayed an ELISA binding increase vs wt of 1 x. Substance “ch4-4-20 K246T, P396H (from UniProt P01857 1-330) (antibody)” displayed an ELISA binding increase vs wt with FcγRIIIA of 1 x. On the same count and under the same terms, the value for “ch4-4-20 K246T, Y319F (from UniProt P01857 1-330) (antibody)” was 1 x.

In the assay with FcγRIIIA, “ch4-4-20 K288N, K326N (from UniProt P01857 1-330) (antibody)” came in with an ELISA binding increase vs wt of 1 x. In turn, “ch4-4-20 K320E, K326E (from UniProt P01857 1-330) (antibody)” yielded an ELISA binding increase vs wt with FcγRIIIA of 1 x.

“ch4-4-20 K326E, G385E (from UniProt P01857 1-330) (antibody)” displayed an ELISA binding increase vs wt in the assay with FcγRIIIA of 0.5 x. As for “ch4-4-20 K326I, P396L (from UniProt P01857 1-330) (antibody)”, in the assay with FcγRIIIA, the ELISA binding increase vs wt was determined as 2.9 x. “ch4-4-20 K334E, T359N, T366S, Q386R (from UniProt P01857 1-330) (antibody)” gave an ELISA binding increase vs wt in the assay with FcγRIIIA of 1 x. Same read-out and setting: the value for “ch4-4-20 K334I (from UniProt P01857 1-330) (antibody)” was 1 x; that for “ch4-4-20 K334N (from UniProt P01857 1-330) (antibody)” was 0.5 x.

As for “ch4-4-20 K370N, S440N (from UniProt P01857 1-330) (antibody)”, the ELISA binding increase vs wt in the assay with FcγRIIIA is 1 x. Consider “ch4-4-20 N315I, V379M, T394M (from UniProt P01857 1-330) (antibody)”, for which, in the assay with FcγRIIIA, the ELISA IIIA binding vs wt is 1 X and the ELISA binding increase vs wt stood at 1 x. Consider “ch4-4-20 P227S, K290E (from UniProt P01857 1-330) (antibody)”, for which the ELISA binding increase vs wt with FcγRIIIA was 1 x. The same measure, in the same setting: to “ch4-4-20 P247L (from UniProt P01857 1-330) (antibody)” belongs 0.5 x.

For the substance “ch4-4-20 P247L, A431V, S442F (from UniProt P01857 1-330) (antibody)”, in the assay with FcγRIIIA, the ELISA binding vs wt turned out to be 1 x.

Substance “ch4-4-20 P247L, I253N, K334N (from UniProt P01857 1-330) (antibody)” came in with an ELISA binding increase vs wt in the assay with FcγRIIIA of 3 x. Take “ch4-4-20 P247L, I377F (from UniProt P01857 1-330) (antibody)”: the ELISA binding increase vs wt in the assay with FcγRIIIA is 1 x.

Substance “ch4-4-20 P291S, K288E, H268L, A141V (from UniProt P01857 1-330) (antibody)” returned an ELISA binding decrease vs wt in the assay with FcγRIIIA of 0.5 x.

Consider “ch4-4-20 P291S, P353Q (from UniProt P01857 1-330) (antibody)”, for which the ELISA binding decrease vs wt with FcγRIIIA turned out to be 0.5 x. In the assay with FcγRIIIA, “ch4-4-20 P343S, P353L, S375I, S383N (from UniProt P01857 1-330) (antibody)” registered an ELISA binding increase vs wt of 0.5 x. Still for that read-out and setting: the value for “ch4-4-20 P396H (from UniProt P01857 1-330) (antibody)” was 1 x; that for “ch4-4-20 Q347H, A339V (from UniProt P01857 1-330) (antibody)” was 0.5 x. The substance “ch4-4-20 R301C, M252L, S192T (from UniProt P01857 1-330) (antibody)” registered an ELISA binding decrease vs wt with FcγRIIIA of 0.5 x.

As to “ch4-4-20 R301H, K340E, D399E (from UniProt P01857 1-330) (antibody)”, in the assay with FcγRIIIA, the ELISA binding decrease vs wt is 0.5 x. For the substance “ch4-4-20 S219Y (from UniProt P01857 1-330) (antibody)”, the ELISA binding increase vs wt with FcγRIIIA was found to be 1 x. In the assay with FcγRIIIA, “ch4-4-20 S298N, S407R (from UniProt P01857 1-330) (antibody)” displayed an ELISA binding increase vs wt of 0.5 x. “ch4-4-20 S383N, N384K, T256N, V262L, K218E, R214I, K205E, F149Y, K133M (from UniProt P01857 1-330) (antibody)” yielded an ELISA binding increase vs wt with FcγRIIIA of 0.5 x. “ch4-4-20 S400P (from UniProt P01857 1-330) (antibody)” gave an ELISA binding increase vs wt in the assay with FcγRIIIA of 1 x.

In the assay with FcγRIIIA, “ch4-4-20 S407I (from UniProt P01857 1-330) (antibody)” had an ELISA binding increase vs wt of 0.5 x. Still for that read-out and setting: to “ch4-4-20 S408I, V215I, V125L (from UniProt P01857 1-330) (antibody)” belongs 0.5 x; to “ch4-4-20 S415I, L251F (from UniProt P01857 1-330) (antibody)”, 0.5 x. The same measure, in the same setting: the value for “ch4-4-20 T335N, K370E, A378V, T394M, S424L (from UniProt P01857 1-330) (antibody)” was 0.5 x; that for “ch4-4-20 T394M, V397M (from UniProt P01857 1-330) (antibody)” was 0.5 x. Still for that read-out and setting: to “ch4-4-20 V279L, P395S (from UniProt P01857 1-330) (antibody)” belongs 1 x.

Regarding “ch4-4-20 V282E, V369I, L406F (from UniProt P01857 1-330) (antibody)”, the ELISA binding increase vs wt with FcγRIIIA is 0.5 x.

In turn, “ch4-4-20 V282M (from UniProt P01857 1-330) (antibody)” displayed an ELISA binding increase vs wt with FcγRIIIA of 1 x.

In the assay with FcγRIIIA, “ch4-4-20 V284A, F372L (from UniProt P01857 1-330) (antibody)” had an ELISA binding vs wt of 1 x.
